Results: the RNAGym collection of RNA variant scans (doi:10.7554/elife.80360)

B1: Hairpin Ribozyme (parent)
chain: GUCCUCUUUCACGUGCGCGUGAAAGAGAGAAGUGAACCAGAGAAACACACGUUGUGGUAUAUUACCUGGUA

Variants of: B1
Test: self-cleavage, relative activity (ratio to wild type); higher = more cleavage; co-transcriptional

**Q.** With AUCCUCUUUCACGUGCGCGUGAAAGAGAGAUGUGAACCAGAGAAACACACGUUGUGGUAUAUUACCUGGUA as the variant, how does the self-cleavage read?
**A.** 0.284

**Q.** Which self-cleavage does the source give for AUCCUCUUUCACGUGCGCGUGAAAGAGAGACGUGAACCAGAGAAACACACGUUGUGGUAUAUUACCUGGUA here?
**A.** 0.132

**Q.** For AUCCUCUUUCACGUGCGCGUGAAAUAGAGAAGUGAACCAGAGAAACACACGUUGUGGUAUAUUACCUGGUA, which self-cleavage is on record?
**A.** 0.102

**Q.** Which self-cleavage does the source give for AUCCUCUUUCACGUGCGCGUGAAAAAGAGAAGUGAACCAGAGAAACACACGUUGUGGUAUAUUACCUGGUA here?
**A.** 0.245

**Q.** Which self-cleavage does the source give for AUCCUCUUUCACGUGCGCGUGAAAGAGAGAAGUGAACCAGAAAAACACACGUUGUGGUAUAUUACCUGGUA here?
**A.** 0.122

**Q.** Which self-cleavage does the source give for AUCCUCUUUCACGUGCGCGUGAAAGAGAGAAGUGAACCAGAGAAACACACGUUGUGGUAUAUUACCUGGUC here?
**A.** 0.435

**Q.** For AUCCUCUUUCACGUGCGCGUGAAAGAGAGAAGUGAACCAGAGAAACACACGUUGUGGUAUAUUACCUGGUU, which self-cleavage is on record?
**A.** 0.196

**Q.** With AUCCUCUUUCACGUGCGCGUGAAAGAGAGAAGUGAACCAGCGAAACACACGUUGUGGUAUAUUACCUGGUA as the variant, how does the self-cleavage read?
**A.** 0.134

**Q.** For AUCCUCUUUCACGUGCGCGUGAAAGAUAGAAGUGAACCAGAGAAACACACGUUGUGGUAUAUUACCUGGUA, which self-cleavage is on record?
**A.** 0.153

**Q.** For AUCCUCUUUCACGUGCGCGUGAAAGAAAGAAGUGAACCAGAGAAACACACGUUGUGGUAUAUUACCUGGUA, which self-cleavage is on record?
**A.** 0.144

**Q.** For AUCCUCUUUCACGUGCGCGUGAAAGAGAAAAGUGAACCAGAGAAACACACGUUGUGGUAUAUUACCUGGUA, which self-cleavage is on record?
**A.** 0.157

**Q.** With AUCCUCUUUCACGUGCGCGUGAAAGAGAUAAGUGAACCAGAGAAACACACGUUGUGGUAUAUUACCUGGUA as the variant, how does the self-cleavage read?
**A.** 0.157

**Q.** Which self-cleavage does the source give for AUCCUCUUUCACGUGCGCGUGAAAGAGACAAGUGAACCAGAGAAACACACGUUGUGGUAUAUUACCUGGUA here?
**A.** 0.196

**Q.** For AUCCUCUUUCACGUGCGCGUGAAAGAGAGAAGUGACCCAGAGAAACACACGUUGUGGUAUAUUACCUGGUA, which self-cleavage is on record?
**A.** 0.215

**Q.** For AUCCUCUUUCACGUGCGCGUGAAAGAGAGAAGUGAACGAGAGAAACACACGUUGUGGUAUAUUACCUGGUA, which self-cleavage is on record?
**A.** 0.157

**Q.** With AUCCUCUUUCACGUGCGCGUGAAAGAGAGAAGUGAACCAGAGCAACACACGUUGUGGUAUAUUACCUGGUA as the variant, how does the self-cleavage read?
**A.** 0.144

**Q.** With AUCCUCUCUCACGUGCGCGUGAAAGAGAGAAGUGAACCAGAGAAACACACGUUGUGGUAUAUUACCUGGUA as the variant, how does the self-cleavage read?
**A.** 0.265

**Q.** With AUCCUCUAUCACGUGCGCGUGAAAGAGAGAAGUGAACCAGAGAAACACACGUUGUGGUAUAUUACCUGGUA as the variant, how does the self-cleavage read?
**A.** 0.232

**Q.** Which self-cleavage does the source give for AUCCUCUUUCACGUGCGCGUGAAAGAGAGAAGUGAACCUGAGAAACACACGUUGUGGUAUAUUACCUGGUA here?
**A.** 0.154

**Q.** With AUCCUCUUUCACGUGCGCAUGAAAGAGAGAAGUGAACCAGAGAAACACACGUUGUGGUAUAUUACCUGGUA as the variant, how does the self-cleavage read?
**A.** 0.203

**Q.** Which self-cleavage does the source give for AUCCUCUUUCACGUGCGCCUGAAAGAGAGAAGUGAACCAGAGAAACACACGUUGUGGUAUAUUACCUGGUA here?
**A.** 0.203

**Q.** With AUCCUCUUUCACGUGCGCUUGAAAGAGAGAAGUGAACCAGAGAAACACACGUUGUGGUAUAUUACCUGGUA as the variant, how does the self-cleavage read?
**A.** 0.13

**Q.** For AUCCUCUUUCACGUGCGCGUGAAAGAGAGAAGUGAAACAGAGAAACACACGUUGUGGUAUAUUACCUGGUA, which self-cleavage is on record?
**A.** 0.0752

**Q.** With AUUCUCUUUCACGUGCGCGUGAAAGAGAGAAGUGAACCAGAGAAACACACGUUGUGGUAUAUUACCUGGUA as the variant, how does the self-cleavage read?
**A.** 0.136

**Q.** Which self-cleavage does the source give for AUACUCUUUCACGUGCGCGUGAAAGAGAGAAGUGAACCAGAGAAACACACGUUGUGGUAUAUUACCUGGUA here?
**A.** 0.115

**Q.** For AUCCUCUUUCACGUGCGCGUGAAAGAGAGAAGUGAACCAGAGAAACACACGUUGUGGCAUAUUACCUGGUA, which self-cleavage is on record?
**A.** 0.216

**Q.** Which self-cleavage does the source give for AUCCUCUUUCACGUGCGCGUGAAAGAGAGAAGUGAACCAGAGAAACACACGUCGUGGUAUAUUACCUGGUA here?
**A.** 0.0768

**Q.** Which self-cleavage does the source give for AUCCUCUUUCACGUGCGCGUGAAAGAGAGAAGUGAACCAGAGAAACACACGUAGUGGUAUAUUACCUGGUA here?
**A.** 0.12

**Q.** Which self-cleavage does the source give for AUCCUCUUUCACGUGCGCGUGAAAGAGAGAAGUGAACCAGAGAAACACACGUGGUGGUAUAUUACCUGGUA here?
**A.** 0.0863

**Q.** With AUCCUCUUUCACGCGCGCGUGAAAGAGAGAAGUGAACCAGAGAAACACACGUUGUGGUAUAUUACCUGGUA as the variant, how does the self-cleavage read?
**A.** 0.166

**Q.** For AUCCUCUUUCACGGGCGCGUGAAAGAGAGAAGUGAACCAGAGAAACACACGUUGUGGUAUAUUACCUGGUA, which self-cleavage is on record?
**A.** 0.195

**Q.** Which self-cleavage does the source give for AUCCUCUUUCACGUGCGCGUGAGAGAGAGAAGUGAACCAGAGAAACACACGUUGUGGUAUAUUACCUGGUA here?
**A.** 0.123

**Q.** With AUCCUCUUUCACGUGCGCGUGACAGAGAGAAGUGAACCAGAGAAACACACGUUGUGGUAUAUUACCUGGUA as the variant, how does the self-cleavage read?
**A.** 0.221

**Q.** Which self-cleavage does the source give for AACCUCUUUCACGUGCGCGUGAAAGAGAGAAGUGAACCAGAGAAACACACGUUGUGGUAUAUUACCUGGUA here?
**A.** 0.574

**Q.** Which self-cleavage does the source give for AUCCUCUUUCACGUGCGCGUGAAAGAGAGAAGUGAACCAGAGAAACACACGUUGUGGUAUAUUCCCUGGUA here?
**A.** 0.0979

**Q.** For AUCCUCUUUCACGUGCGCGUGAAUGAGAGAAGUGAACCAGAGAAACACACGUUGUGGUAUAUUACCUGGUA, which self-cleavage is on record?
**A.** 0.191

**Q.** For AUCCUCUUUCACGUGCGCGUGAAGGAGAGAAGUGAACCAGAGAAACACACGUUGUGGUAUAUUACCUGGUA, which self-cleavage is on record?
**A.** 0.159
